What all share (test): IEDB peptide-MHC binding, purified MHC/competitive/radioactivity; filed as Kd, often an IC50 or EC50 that approximates it; ≥ and ≤ were set here for values at or beyond the usual limits of such assays
Assay [1] has as its target HLA-A*02:02.
Assay [2] deals with HLA-A*02:03.
The target in assay [3] is HLA-A*02:06.
The target in assay [4] is HLA-A*30:02.
The target of assay [5] is HLA-A*24:02.
The mark [6] stands for this setting: source organism: SARS coronavirus Tor2.
[7] abbreviates: source organism: Vaccinia virus WR.
[8] abbreviates: source organism: Mammarenavirus machupoense.
Where [9] appears, read: source organism: Dengue virus 2 Jamaica/1409/1983.
Where [10] appears, read: source organism: Dengue virus 3 Martinique/1243/1999.
[11] abbreviates: source organism: Mammarenavirus whitewaterense.
Setting [12] is: source organism: Mammarenavirus tacaribeense.

We go through 37 sequences from the Immune Epitope Database (IEDB).

In the case of LLSAGIFGA, the values for the Kd in assay [1] (setting [6]), in assay [2] (setting [6]) and in assay [3] (setting [6]) were 12.3 nM, 14.9 nM and 24.6 nM, respectively.

In the case of LMDSIFVSTM, the Kd (usually a measure of binding affinity in units of concentration) in assay [1] (setting [7]) amounted to 3.65 nM; in assay [2] (setting [7]), 8.15 nM; in assay [3] (setting [7]), 610 nM.

In the case of LNKSDSSWAV, the results for the Kd in assay [1] (setting [8]), in assay [2] (setting [8]) and in assay [3] (setting [8]) were 550 nM, 5250 nM and 2190 nM, respectively.

For the sequence LVSDCASTI, the results for the Kd in assay [1] (setting [7]), in assay [2] (setting [7]) and in assay [3] (setting [7]) were 48.9 nM, 17.2 nM and 61.3 nM, respectively.

On to MIHKTYIDV, for which the Kd was 1400 nM in assay [1] (setting [7]), 15.2 nM in assay [2] (setting [7]) and 126 nM in assay [3] (setting [7]).

As to MLLNVQTLI, the values for the Kd in assay [1] (setting [7]), in assay [2] (setting [7]) and in assay [3] (setting [7]) were 0.169 nM, 0.25 nM and 0.219 nM, respectively.

MLPESDLDKV: the figures for the Kd in assay [1] (setting [7]), in assay [2] (setting [7]) and in assay [3] (setting [7]) were 3.23 nM, 1770 nM and 4.42 nM, respectively.

In the case of MMNERDVSV, the Kd in assay [1] (setting [7]) was 0.441 nM; in assay [2] (setting [7]), 0.27 nM; in assay [3] (setting [7]), 63.9 nM.

As for NAILHNIYRL, the Kd is 5610 nM in assay [1] (setting [7]), 10200 nM in assay [2] (setting [7]) and 576 nM in assay [3] (setting [7]).

NASKTINALV: the figures for the Kd in assay [1] (setting [7]), in assay [2] (setting [7]) and in assay [3] (setting [7]) were 765 nM, 274 nM and 3220 nM, respectively.

On to NIPELKHGLL, for which the Kd worked out at 2300 nM in assay [1] (setting [7]), 2690 nM in assay [2] (setting [7]) and 1230 nM in assay [3] (setting [7]).

Turning to NQLDSSNKSM, the dissociation constant (Kd) in assay [1] (setting [7]) is 1780 nM; in assay [2] (setting [7]), ≥ 30000 nM; in assay [3] (setting [7]), 635 nM.

For the sequence NTFVNFNSV, the Kd is 5020 nM in assay [1] (setting [7]), 99.6 nM in assay [2] (setting [7]) and 0.346 nM in assay [3] (setting [7]).

With PASISSVLTI, the results for the Kd in assay [1] (setting [7]), in assay [2] (setting [7]) and in assay [3] (setting [7]) were 1360 nM, 83.3 nM and 1550 nM, respectively.

As for PLISILMIFI, the results for the Kd in assay [1] (setting [7]), in assay [2] (setting [7]) and in assay [3] (setting [7]) were 433 nM, 769 nM and 2420 nM, respectively.

In the case of PTEMVDVSMM, the values for the Kd in assay [1] (setting [7]), in assay [2] (setting [7]) and in assay [3] (setting [7]) were 11500 nM, ≥ 70400 nM and 12100 nM, respectively.

Regarding RASTTENAA, the Kd in assay [1] (setting [7]) is ≥ 26700 nM; in assay [2] (setting [7]), ≥ 66700 nM; in assay [3] (setting [7]), 12100 nM.

In the case of RGSGQVGTY, the Kd in assay [4] (setting [9]) turned out to be 208 nM.

Regarding SKIPGGAMY, the Kd in assay [4] (setting [10]) came out at 365 nM.

In the case of SLDQTHIKTI, the figures for the Kd in assay [1] (setting [7]), in assay [2] (setting [7]) and in assay [3] (setting [7]) were 1430 nM, 14.6 nM and 2460 nM, respectively.

As to SLTQVKELGI, the Kd in assay [1] (setting [7]) came to 9.75 nM; in assay [2] (setting [7]) it was 75.4 nM; in assay [3] (setting [7]) it was 157 nM.

Consider SMWALVISV, for which the Kd in assay [1] (setting [6]) came out at 6.12 nM; in assay [2] (setting [6]), 4.43 nM; in assay [3] (setting [6]) it was 0.793 nM.

On to SMYTRLRQDT, for which the Kd in assay [1] (setting [7]) was 6560 nM; in assay [2] (setting [7]), 1140 nM; in assay [3] (setting [7]) it was ≥ 42200 nM.

In the case of SYLAGAGLL, in assay [5] (setting [9]), the Kd was determined as 19.4 nM.

Regarding TAIRAGYSIV, the figures for the Kd in assay [1] (setting [7]), in assay [2] (setting [7]) and in assay [3] (setting [7]) were 6820 nM, 71.8 nM and 8590 nM, respectively.

TIVSRSSRGV: the Kd in assay [1] (setting [7]) amounted to 4700 nM; in assay [2] (setting [7]), 11.1 nM; in assay [3] (setting [7]) it was 3740 nM.

For the sequence TLNTLITLI, the figures for the Kd in assay [1] (setting [7]), in assay [2] (setting [7]) and in assay [3] (setting [7]) were 0.989 nM, 0.596 nM and 941 nM, respectively.

With TVDFTDCRTI, the Kd in assay [1] (setting [7]) was ≥ 31800 nM; in assay [2] (setting [7]), 10400 nM; in assay [3] (setting [7]), 10600 nM.

As for TVIKTLLEV, the Kd in assay [1] (setting [11]) was determined as 2010 nM; in assay [2] (setting [11]), 52.6 nM; in assay [3] (setting [11]) it was 16.6 nM.

Take TWRDMAHTLI: in assay [5] (setting [10]), the Kd was determined as 387 nM.

As to VAMLLTHGA, the Kd in assay [1] (setting [7]) stood at 7160 nM; in assay [2] (setting [7]), 628 nM; in assay [3] (setting [7]), 726 nM.

Regarding VQEFIFSAL, the Kd in assay [1] (setting [7]) turned out to be 419 nM; in assay [2] (setting [7]), 466 nM; in assay [3] (setting [7]) it was 198 nM.

Consider VVHGYFTEV, for which the Kd in assay [1] (setting [6]) worked out at 17.2 nM; in assay [2] (setting [6]), 3.27 nM; in assay [3] (setting [6]) it was 2.63 nM.

For the sequence VVYHDDDNTT, the results for the Kd in assay [1] (setting [7]), in assay [2] (setting [7]) and in assay [3] (setting [7]) were 1860 nM, 12600 nM and 3920 nM, respectively.

Consider YKTWAYHGSY, for which, in assay [4] (setting [9]), the Kd came out at 4220 nM.

In the case of YMVTDKTAYI, the figures for the Kd in assay [1] (setting [7]), in assay [2] (setting [7]) and in assay [3] (setting [7]) were 0.225 nM, 0.277 nM and 6.12 nM, respectively.

On to YNCKCCWFA, for which the Kd was 16000 nM in assay [1] (setting [12]), ≥ 31800 nM in assay [2] (setting [12]) and ≥ 77000 nM in assay [3] (setting [12]).
